For data set [1], the target named is T1, GhWRKY91 (Gossypium hirsutum (CCRI10), UniProt A0A068LD65 1-273). The data set can be described thus: EMSA; LightShift Chemiluminescent EMSA Kit (Thermo Scientific); buffer, salt, pH and temperature not stated. The note with it: protein: recombinant; tags: N-terminal GST, removed by digestion after purification; label: biotin end label. Background: Mobility shift assays separate free from complexed probe on a gel.

Data set [2] addresses T1, GhWRKY91. The data set can be described thus: competition; excess unlabelled probe against labelled GhWRKY17 probe; LightShift Chemiluminescent EMSA Kit (Thermo Scientific); buffer, salt, pH and temperature not stated. The note with it: protein: recombinant; tags: N-terminal GST, removed by digestion after purification.

T1 sequence (A0A068LD65 entry or part of it): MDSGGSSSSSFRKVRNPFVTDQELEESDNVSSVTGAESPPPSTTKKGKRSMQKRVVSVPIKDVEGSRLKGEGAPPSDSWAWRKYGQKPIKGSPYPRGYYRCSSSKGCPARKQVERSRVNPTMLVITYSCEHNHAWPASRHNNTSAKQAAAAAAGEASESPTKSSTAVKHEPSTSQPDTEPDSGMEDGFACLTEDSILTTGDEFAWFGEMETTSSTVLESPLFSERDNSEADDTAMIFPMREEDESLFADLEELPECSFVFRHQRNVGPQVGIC

B1: GhWRKY17 promoter W-box probe (dsDNA)
DNA 1: AATTTCAAACGGCTAATCCCCACCTTTTGACCTTATCTCTTGTCAGTGACCCA
DNA 2: TGGGTCACTGACAAGAGATAAGGTCAAAAGGTGGGGATTAGCCGTTTGAAATT
Take B1: the binding result with GhWRKY91 [1] is recorded as “binds”.

B2: GhWRKY17 promoter W-box probe, unlabelled competitor (dsDNA)
DNA 1: B1 DNA 1
DNA 2: B1 DNA 2
On to B2, for which the binding result with GhWRKY91 [2] is “binds”.

B3: GhWRKY68 promoter W-box probe (dsDNA)
DNA 1: GCACTGTTCAATATCCGTACAAGTGGTTGACCTACAATTGCCCGTCGATCC
DNA 2: GGATCGACGGGCAATTGTAGGTCAACCACTTGTACGGATATTGAACAGTGC
As to B3, in the data set with GhWRKY91 [1], the binding result is reported as “no binding”.

B4: GhWRKY27a promoter W-box probe (dsDNA)
DNA 1: GCGACTTGGTCAGCAATTGGAGTTTTGACCTTACCTCACTCTTCAGTCCAC
DNA 2: GTGGACTGAAGAGTGAGGTAAGGTCAAAACTCCAATTGCTGACCAAGTCGC
For B4, the binding result with GhWRKY91 [1] is listed as “no binding”.

B5: GhAPX1 promoter W-box probe (dsDNA)
DNA 1: TCCCCGACGTTCCGACAAGTTTTGACTATTTTATTTTCTTAAAATAAAAAGC
DNA 2: GCTTTTTATTTTAAGAAAATAAAATAGTCAAAACTTGTCGGAACGTCGGGGA
Take B5: the binding result with GhWRKY91 [1] is listed as “no binding”.
